The experiment has as its target HIV-1 envelop trimer (BG505 DS-SOSIP) (HIV-1 group M subtype A, isolate BG505, UniProt Q2N0S6, stabilised).

B1: VHH9 row 4 (VHH9 group, Nb10-Nb13) (VHH)
VHH: QVKLEESGGGSVQAGGSLRLSCTAPGFTSNSCGMAWYRQAPGKEREFVSSISTDGTTSYADSVKGRFTISKDKAKDTVYLQMNSLKPEDTAMYSCKTYGPYCYFDVWGAGTTVTVSA
B1: the binding result is on record as “binds”.

The values above are taken from publication doi:10.1101/2021.03.04.433768 (bioRxiv, 2021).
